Target: NADP+-specific glutamate dehydrogenase from Aspergillus terreus (Aspergillus terreus)
Assay: crystal structure

NADP+-specific glutamate dehydrogenase from Aspergillus terreus (enzyme)
stoichiometry N: 6
